The record followed here is US20190282704A1 (ZOETIS SERVICES, published 2019).

Substitutions are numbered along the chain they refer to. Bridges are numbered along the chain shown (N, C = ends). Where no end group is shown, it is not given here. mT2a = not defined here

The labels stand for the following.
B1: ZIL159 (antibody, V domains shown)
VH: EVQLVESGGDLVKPAGSLRLSCVASGFTFSSYVMTWVRQAPGKGLQWVAGINSEGSRTAYADAVKGRFTISRDNAKNTLYLQIDSLRAEDTAIYYCATGDIVATGTSYWGQGTLVTVSS
VL: SNVLTQPPSVSVSLGQTATISCSGETLNRFYTQWFQQKAGQAPVLVIYKDTERPSGIPDRFSGSSSGNIHTLTISGARAEDEAAYYCKSAVSIDVGVFGGGTHLTVFR
notes: Recombinant fully canine IgG (65_1 isotype); also called CAN-ZIL159
B2: mouse anti IL-31 antibody 11E12 (antibody, V domains shown)
VH: QVQLQQSGAELVKPGASVKLSCKASGYTFKYYDINWVRQRPEQGLEWIGWIFPGDGGTKYNETFKGKATLTTDKSSSTAYMQLSRLTSEDSAVYFCARGGTSVIRDAMDYWGQGTSVTVSS
VL: DIVLTQSPASLAVSLGQRATISCRASESVDNYGISFMHWYQQKPGQPPKLLIYRASNLESGIPARFSGSGSRTDFTLTINPVETDDVATYYCQQSNKDPLTFGAGTKLELK
notes: Mouse monoclonal used for comparison; also called Mu-11E12; MU-11E12
B3: Peptide ZTS-562 (peptide)
peptide: CEISVPADTFERKSFC
modifications: constrained through the terminal cysteines; linker only shown in FIG. 13A
B4: Peptide ZTS-563 (peptide)
peptide: CAKVSMPADNFERKNFILTC
modifications: linker 1-20 via mT2a; reading uncertain
B5: ZIL69 (antibody, V domains shown)
VH: EVQLVESGGDLVKPAGSLRLSCVASGFTFSSYAMKWVRQAPGKGLQWVATINNDGTRTGYADAVRGRFTISKDNAKNTLYLQMDSLRADDTAVYYCTKGNAESGCTGDHCPPYWGQGTLVTVSS
VL: SSVLTQPPSVSVSLGQTATISCSGESLNKYYAQWFQQKAGQAPVLVIYKDTERPSGIPDRFSGSSAGNTHTLTISGARAEDEADYYCESAVSSETNVFGSGTQLTVLR
notes: Recombinant fully canine IgG (65_1 isotype); also called CAN-ZIL69
B6: ZIL171 (antibody, V domains shown)
VH: EVQLVESGGDLVKPAGSLRLSCVASGFTFRTYVMNWVRQAPGKGLQWVASINGGGSSPTYADAVRGRFTVSRDNAQNSLFLQMNSLRAEDTAIYFCVVSMVGPFDYWGHGTLVTVSS
VL: B5 VL with E25K, N28S, K29Y, A66S, E94D, N96I, S100G, Q103H
notes: Recombinant fully canine IgG (65_1 isotype); also called CAN-ZIL171
B7: ZIL154 (antibody, V domains shown)
VH: EVHLVESGGDLVKPWGSLRLSCVASGFTFSDRGMSWVRQSPGKGLQWVAYIRYDGSRTDYADAVEGRFTISRDNAKNTLYLQMNSLRAEDTAVYYCARWDGSSFDYWGQGTLVTVSS
VL: DIVVTQTPLSLSVSPGETASFSCKASQSLLHSDGNTYLDWFRQKPGQSPQRLIYKVSNRDPGVPDRFSGSGSGTDFTLRISGVEADDAGLYYCMQAIHFPLTFGAGTKVELKR
notes: Recombinant fully canine IgG (65_1 isotype); also called CAN-ZIL154
B8: ZIL94 (antibody, V domains shown)
VH: EVQLVDSGGDLVKPGGSLRLSCVASGFTFSTYFMSWVRQAPGRGLQWVALISSDGSGTYYADAVKGRFTISRDNAKNTLYLQMNSLRAEDTAMYYCAIFWRAFNDWGQGTLVTVSS
VL: QTVVIQEPSLSVSPGGTVTLTCGLNSGSVSTSNYPGWYQQTRGRTPRTIIYDTGSRPSGVPNRFSGSISGNKAALTITGAQPEDEADYYCSLYTDSDILVFGGGTHLTVLR
notes: Recombinant fully canine IgG (65_1 isotype); also called CAN-ZIL94
B9: mouse anti IL-31 antibody 15H05 (antibody, V domains shown)
VH: QVQLQQSAAELARPGASVKMSCKTSGYTFTSYTIHWIKQRPGQGLEWIGNINPTSGYTENNQRFKDKTTLTVDRSSNTAYLQLHSLTSEDSAVYFCARWGFKYDGEWSFDVWGAGTTVTVSS
VL: DIQMNQSPSSLSASLGDTITVTCRASQGISIWLSWYQQKPGNIPKVLINKASNLHIGVPPRFSGSGSGTHFTLTITSLQPEDIATYYCLQSQTYPLTFGGGTKLEIN
notes: Mouse hybridoma monoclonal; also called Mu-15H05; MU-15H05
B10: ZTS-927 (antibody)
heavy: QVLLVQSGAEVRTPGASVKIFCKASGYSFTSYTIHWLRQAPAQGLEWMGNINPTSGYTENNQRFKDRLTLTADTSTNTAYMELSSLRSADTAMYYCARWGFKYDGEWSFDVWGAGTTVTVSSASTTAPSVFPLAPSCGTTSGATVALACLVLGYFPEPVTVSWNSGALTSGVHTFPAVLQASGLYSLSSMVTVPSSRWLSDTFTCNVAHPPSNTKVDKTVRKTDHPPGPKPCDCPKCPPPEMLGGPSIFIFPPKPKDTLSISRTPEVTCLVVDLGPDDSDVQITWFVDNTQVYTAKTSPREEQFNSTYRVVSVLPILHQDWLKGKEFKCKVNSKSLPSPIERTISKAKGQPHEPQVYVLPPAQEELSRNKVSVTCLIKSFHPPDIAVEWEITGQPEPENNYRTTPPQLDSDGTYFVYSKLSVDRSHWQRGNTYTCSVSHEALHSHHTQKSLTQSPGK
light: EIQMTQSPSSLSASPGDRVTITCRASQGISIWLSWYQQKPGNIPKVLINKASNLHIGVPSRFSGSGSGTDFTLTISSLEPEDAATYYCLQSQTYPLTFGGGTKLEIKRSDAQPSVFLFQPSLDELHTGSASIVCILNDFYPKEVNVKWKVDGVVQNKGIQESTTEQNSKDSTYSLSSTLTMSSTEYQSHEKFSCEVTHKSLASTLVKSFQRSECQRE
B11: ZTS-361 (antibody)
heavy: B10 heavy with M242A, L243A, G245A
light: B10 light

Assay [1] concerns the target T1, equine IL-31 (Equine_IL31) (equine).
T1 construct: Production of the protein used as Biacore surface is not described; also called horse IL-31
T1 chain: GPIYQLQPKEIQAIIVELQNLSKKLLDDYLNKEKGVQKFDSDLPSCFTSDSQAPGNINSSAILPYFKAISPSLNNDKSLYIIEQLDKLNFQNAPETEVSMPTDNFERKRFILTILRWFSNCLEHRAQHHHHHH
The assay can be described thus: Biacore, IL-31 surface, single antibody concentration. (Surface plasmon resonance follows binding to a sensor surface in real time, without labels.)

Assay [2] addresses T2, human IL-31 (human, UniProt Q6EBC2 24-164).
T2 construct: Production of the protein used as Biacore surface is not described
T2 sequence: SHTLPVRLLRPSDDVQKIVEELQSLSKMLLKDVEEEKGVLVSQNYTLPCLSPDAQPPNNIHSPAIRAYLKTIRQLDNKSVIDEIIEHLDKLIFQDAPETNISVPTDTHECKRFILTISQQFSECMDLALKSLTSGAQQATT
The description is as above.

Assay [3] concerns the target B11. The assay can be described thus: cell-based or functional assay.
In assay [4] the target is T3, canine IL-31 (Canine_IL31) (canine).
T3 chain: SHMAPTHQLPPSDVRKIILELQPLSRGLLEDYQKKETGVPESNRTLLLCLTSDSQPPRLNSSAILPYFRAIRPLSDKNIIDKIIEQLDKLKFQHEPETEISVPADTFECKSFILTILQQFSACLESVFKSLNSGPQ
The assay can be described thus: cell-based or functional assay.

The target of assay [5] is T4, Peptide ZTS-561 (terminal cysteines constrained with the mT2a linker (CLIPS)).
T4 construct: Unconjugated constrained peptide; also called canine IL-31 15H05 mimotope ZTS-561
The experiment in a line: Biacore, peptide ZTS-561 immobilised on the surface.

Assay [6] deals with B3. The assay can be described thus: Biacore, peptide ZTS-562 immobilised on the surface.
Assay [7] addresses B4. The experiment in a line: Biacore, peptide ZTS-563 immobilised on the surface.
Assay [8] addresses T5, Peptide ZTS-564 (terminal cysteines constrained with the mT2b linker (CLIPS)).
T5 peptide: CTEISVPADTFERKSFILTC
The assay can be described thus: Biacore, peptide ZTS-564 immobilised on the surface.

For the molecule B1, the binding result in assay [1] is “no binding”.
B2: the binding result in assay [1] and in assay [2] was “no binding” in each case.
As for B3, the “IC50 of peptide blocking mAb ZTS-361 inhibition of feline IL-31 mediated STAT3 phosphorylation in FCWF-4 cells, unconjugated” value in assay [3] is 1.05 µg/mL.
The same measure, in the same setting: with B4 the figure was 1.74 µg/mL.
For the molecule B5, the binding result in assay [1] is given as “no binding”.
Regarding B6, the binding result in assay [1] is on record as “no binding”.
Regarding B7, the binding result in assay [1] and in assay [2] was “no binding” each time.
As to B8, in assay [1], the binding result was “no binding”.
In the case of B9, the binding result was “binds” in assay [1] and “no binding” in assay [2].
For orientation: Kd means the equilibrium constant for the complex coming apart. In the case of B10, the “IC50, inhibition of canine IL-31-induced STAT3 phosphorylation, canine DH82 cells” value in assay [4] came to 23.2 µg/mL. For the same molecule, the “IC50, inhibition of canine IL-31-induced STAT3 phosphorylation, feline FCWF4 cells” value in assay [4] worked out at 39.6 µg/mL. The Kd in assay [5] is 1.02 nM; in assay [6], 2.78 nM; in assay [7], 1.48 nM; in assay [8], 4.13 nM.
Take B11: in assay [4], the “IC50, inhibition of canine IL-31-induced STAT3 phosphorylation, canine DH82 cells” value was 23 µg/mL and the “IC50, inhibition of canine IL-31-induced STAT3 phosphorylation, feline FCWF4 cells” value was found to be 38.8 µg/mL.
